# “And” between values parts separate entries of the source, which are not always exact repeats. Equal entries are not always repeated.
# Target: NRC4 (NLR required for cell death 4) with the mutations L9E and D478V
# Test: cryo-EM structure
substance,measurement,value
NRC4 (NLR required for cell death 4) with the mutations L9E and D478V (natural protein),stoichiometry N,6 and 12

# From article doi:10.1101/2023.12.18.571367
